In patent publication US10328148B2, “Protein drug formulations and packages” (Purdue Research Foundation, priority 2010, dated 2019):

Tested on: IgG
Test: HP-SEC of IgG with free Protein A or Protein G: complex formation and agitation-induced aggregation
Type: physicochemical
Details: IgG:Protein A or G ratio 1:4, RT 2 h
Experimental: Effect of proteins A and G on aggregation of IgG. High performance size exclusion chromatography (HP-SEC) is used to verify that IgG binds with Protein A or Protein G completely. 50 µL aliquots are injected to a Tosoh TSK G 13000 SWXL Gel 3000 column ([…]×7.8 mm) and separated at a flow rate of 0.5 mL/min. The mobile phase contains 50 mM potassium phosphate and 100 mM K2SO4 at pH 7.1. The relative percentage of IgG monomer and dimer are calculated in triplicate as a percentage of the total chromatographic peak area at 280 nm. Fresh IgG is incubated with free Protein A or free Protein G, respectively, at IgG:Protein A or G ratio of 1:4 at RT for 2 h before being subjected to agitation. […] Effect of agitation of protein A and protein G complexes of IgG. The prior Example 1 is repeated, subjecting the IgG+Protein A or IgG+Protein G to agitation on a shaker at room temperature for 44 h.

B1: Protein G: free Protein G, immunoglobulin-binding protein used as polyamino acid ligand (protein)
chain: TYKLILNGKTLKGETTTEAVDAATAEKVFKQYANDNGVDGEWTYDDATKTFTVTEKPEVIDASELTPAVTTYKLVINGKTLKGETTTEAVDAATAEKVFKQYANDNGVDGEWTYDDATKTFTVTEKPEVIDASELTPAVTTYKLVINGKTLKGETTTKAVDAETAEKAFKQYANDNGVDGVWTYDDATKTFTVTE
- Complex formation with IgG by HP-SEC: formation of IgG-Protein A and IgG-Protein G complexes
